Data set [1] is described as follows: oral TGR-1202 under fasted and fed conditions, pharmacokinetics. To be noted: in vivo, 200 mg, single oral dose of 200 mg; for AUC(0-inf): read-out: AUC0-inf, Geometric LS Means; for AUC(0-t): read-out: AUC0-t, Geometric LS Means; for Cmax: read-out: Cmax, Geometric LS Means.
The target in a further data set is PI3K isoforms (Human) α (Homo sapiens, UniProt P42336). Put plainly: biochemical.
The nature of data set [2]: micronized vs non-micronized TGR-1202 formulations, pharmacokinetics. The conditions noted are these: in vivo, po, 200 mg, single oral dose of 200 mg; for AUC(0-inf): read-out: AUC0-inf, Geometric LS Means; for AUC(0-t): read-out: AUC0-t, Geometric LS Means; for Cmax: read-out: Cmax, Geometric LS Means.
The target in the next data set is PI3K isoforms (Human) γ (Homo sapiens, UniProt P48736). Put plainly: biochemical.
Sequence of PI3K isoforms (Human) γ (P48736 whole entry, canonical isoform): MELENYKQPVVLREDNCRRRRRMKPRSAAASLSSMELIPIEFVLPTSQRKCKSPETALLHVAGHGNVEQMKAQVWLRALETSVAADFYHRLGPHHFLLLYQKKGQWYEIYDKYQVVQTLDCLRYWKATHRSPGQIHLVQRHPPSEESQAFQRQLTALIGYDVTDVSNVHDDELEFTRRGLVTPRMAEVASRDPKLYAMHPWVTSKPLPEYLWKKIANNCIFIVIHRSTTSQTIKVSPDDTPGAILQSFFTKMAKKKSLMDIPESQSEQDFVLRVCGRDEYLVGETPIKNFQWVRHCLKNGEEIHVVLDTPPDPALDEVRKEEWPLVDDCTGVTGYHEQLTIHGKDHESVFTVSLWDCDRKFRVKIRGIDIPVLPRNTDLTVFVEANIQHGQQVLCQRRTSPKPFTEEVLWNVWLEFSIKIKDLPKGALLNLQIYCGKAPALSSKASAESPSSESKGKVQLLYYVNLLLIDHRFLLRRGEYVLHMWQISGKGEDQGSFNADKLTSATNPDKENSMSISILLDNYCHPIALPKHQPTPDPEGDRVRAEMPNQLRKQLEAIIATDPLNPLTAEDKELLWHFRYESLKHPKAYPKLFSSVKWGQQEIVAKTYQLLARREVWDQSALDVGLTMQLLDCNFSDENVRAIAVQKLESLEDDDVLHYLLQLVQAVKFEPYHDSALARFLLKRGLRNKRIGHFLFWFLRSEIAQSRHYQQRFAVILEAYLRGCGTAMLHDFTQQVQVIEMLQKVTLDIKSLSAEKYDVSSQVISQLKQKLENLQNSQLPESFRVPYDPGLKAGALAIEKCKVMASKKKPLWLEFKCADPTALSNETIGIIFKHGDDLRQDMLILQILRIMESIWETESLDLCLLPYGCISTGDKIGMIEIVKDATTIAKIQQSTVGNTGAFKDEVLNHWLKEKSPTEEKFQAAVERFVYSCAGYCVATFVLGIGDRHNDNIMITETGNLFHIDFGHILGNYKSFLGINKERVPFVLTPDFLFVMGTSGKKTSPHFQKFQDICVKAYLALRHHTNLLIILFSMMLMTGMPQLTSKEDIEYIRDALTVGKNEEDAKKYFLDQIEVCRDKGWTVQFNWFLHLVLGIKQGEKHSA
The target of another data set is PI3K isoforms (Human) β (Homo sapiens, UniProt P42338). Nature of the data set: biochemical.
Sequence of PI3K isoforms (Human) β (P42338 whole entry, canonical isoform): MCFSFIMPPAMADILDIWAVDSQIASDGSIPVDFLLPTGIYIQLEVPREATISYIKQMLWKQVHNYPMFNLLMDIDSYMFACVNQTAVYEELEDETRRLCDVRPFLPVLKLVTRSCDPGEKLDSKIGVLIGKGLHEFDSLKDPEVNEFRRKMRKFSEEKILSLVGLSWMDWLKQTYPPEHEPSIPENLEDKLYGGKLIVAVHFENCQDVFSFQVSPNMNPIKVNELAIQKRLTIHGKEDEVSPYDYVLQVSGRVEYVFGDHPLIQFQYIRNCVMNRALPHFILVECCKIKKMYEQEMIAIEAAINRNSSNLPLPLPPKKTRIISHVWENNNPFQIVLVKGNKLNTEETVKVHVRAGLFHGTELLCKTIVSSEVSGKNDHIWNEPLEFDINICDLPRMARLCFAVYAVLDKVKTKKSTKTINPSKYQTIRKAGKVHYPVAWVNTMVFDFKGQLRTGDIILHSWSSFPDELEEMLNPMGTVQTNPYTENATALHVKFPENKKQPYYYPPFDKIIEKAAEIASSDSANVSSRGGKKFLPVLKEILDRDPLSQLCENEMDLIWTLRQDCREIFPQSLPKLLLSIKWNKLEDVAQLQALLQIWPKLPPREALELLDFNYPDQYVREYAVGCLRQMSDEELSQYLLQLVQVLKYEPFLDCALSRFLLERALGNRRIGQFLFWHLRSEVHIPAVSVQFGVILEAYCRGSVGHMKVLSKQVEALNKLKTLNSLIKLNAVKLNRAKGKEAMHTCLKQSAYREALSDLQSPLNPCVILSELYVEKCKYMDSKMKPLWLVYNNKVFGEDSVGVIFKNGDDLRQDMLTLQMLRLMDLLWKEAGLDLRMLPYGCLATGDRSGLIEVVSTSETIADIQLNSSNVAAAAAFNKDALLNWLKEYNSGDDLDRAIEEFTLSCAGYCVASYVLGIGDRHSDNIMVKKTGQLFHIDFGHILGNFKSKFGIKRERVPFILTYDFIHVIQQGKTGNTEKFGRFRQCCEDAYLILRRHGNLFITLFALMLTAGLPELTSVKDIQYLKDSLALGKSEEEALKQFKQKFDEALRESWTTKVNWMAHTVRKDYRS
Sequence of PI3K isoforms (Human) β (P27986 whole entry partner, canonical isoform): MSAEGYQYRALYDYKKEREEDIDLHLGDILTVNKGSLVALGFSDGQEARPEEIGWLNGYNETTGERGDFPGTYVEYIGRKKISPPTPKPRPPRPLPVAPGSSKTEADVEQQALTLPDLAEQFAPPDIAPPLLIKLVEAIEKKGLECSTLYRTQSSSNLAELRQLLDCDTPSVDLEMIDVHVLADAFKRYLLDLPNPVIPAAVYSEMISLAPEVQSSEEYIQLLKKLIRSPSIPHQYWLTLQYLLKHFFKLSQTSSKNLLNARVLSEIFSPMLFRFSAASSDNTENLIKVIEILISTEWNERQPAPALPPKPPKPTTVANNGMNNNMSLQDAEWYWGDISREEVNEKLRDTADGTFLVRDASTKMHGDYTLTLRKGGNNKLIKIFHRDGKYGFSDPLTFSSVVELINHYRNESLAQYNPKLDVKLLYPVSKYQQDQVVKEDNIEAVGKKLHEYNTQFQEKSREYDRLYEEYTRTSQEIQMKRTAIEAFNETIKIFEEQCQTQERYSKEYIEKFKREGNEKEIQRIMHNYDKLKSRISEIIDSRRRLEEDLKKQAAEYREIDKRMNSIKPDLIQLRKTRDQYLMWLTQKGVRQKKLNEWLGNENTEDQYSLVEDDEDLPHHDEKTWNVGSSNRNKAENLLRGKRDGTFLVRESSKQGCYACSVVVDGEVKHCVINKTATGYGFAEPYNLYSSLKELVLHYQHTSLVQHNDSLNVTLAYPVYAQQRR
Data set [3] has as its system patients with relapsed and refractory hematologic malignancies. To be noted: single agent; relapsed or refractory hematologic malignancies; cited from earlier work.
For a further data set, the system named is patients with CLL. To be noted: pembrolizumab alone; cited from earlier work.
Data set [4] addresses T1, PD-L1 (Homo sapiens, UniProt Q9NZQ7). Put plainly: Octet antibody binding kinetics. Here is the method:
(§1) FIGS. 2A-2C are graphs showing the binding kinetics of exemplary anti-PD-L1 antibody CTI-48 against human PD-L1 (FIG. 2A), mouse PD-L1 (FIG. 2B), and cyno PD-L1 (FIG. 2C).
(§2) Octet data analysis was used in determining affinity measurements to assess antibody binding kinetics. 2 mL of the loading sample was prepared at 20 ug/mL (default concentration) in kinetic buffer. Aliquot at least 200 uL into a black 96-well plate. Concentration ranges for the sample were based on the estimated KD of the interaction (if available). […] A 7-point dilution was made into the sample column using kinetic buffer as the sample diluent. The last well of the sample column was used as a reference well later in data analysis, should only contain kinetic buffer.
(§3) Biosensors were hydrated in kinetic buffer (lx PBS, 0.1% BSA, 0.02% Tween20, 0.05% Sodium Azide) at room temperature for 10 minutes.
(In general: Biolayer interferometry detects binding as a change in optical thickness at a sensor tip.)

The test system of the next data set is SUDHL-1 lymphoma cells. Nature of the data set: ADCC activity of anti-PD-L1 antibodies. The data set is classed as cell-based. The conditions noted are these: PD-L1+ lymphoma cells with primary NK cells. As to the method: Reporter bioassays were performed in order to determine antibody-dependent cell—mediates cytotoxicity (ADCC) of the disclosed anti-PD-L1 antibodies. The assays utilized SUDHL-1 lymphoma cells and donor PBMCs. Various antibodies were tested at concentrations of 1 or 3 μg/ml.
The results of this study, which are shown for exemplary anti-PD-L1 antibody CTI-48 in FIG. 3, are represented by percent cytotoxicity following a 4 hour incubation with the disclosed antibodies.

Another data set concerns IFN-γ production. Put plainly: IFN-γ production in mixed lymphocyte reaction (MLR) cultures. The data set is classed as cell-based. The conditions noted are these: 4-day MLR culture, antibodies at 10 μg/mL, over control levels. As to the method:
FIG. 6 is a bar graph showing the effect of the disclosed PD-L1 antibodies on IFN-γ production. Antibodies were dosed into mixed lymphocyte reaction (MLR) cultures at a concentration of 10 μg/mL. Data were normalized to vehicle control and are presented as combined mean+SEM (n=6). *p<0.05**p<0.01,***p<0.001 indicates statistical significance when compared to appropriate isotype control (hIgG1) using Ordinary one-way ANOVA with Dunnett's multiple comparison post-hoc test.
Antibodies were dosed into mixed lymphocyte reaction (MLR) cultures in order to determine the effects of the disclosed antibodies on IFN-γ production. The fold change in production of IFN-γ was determined after a 4-day MLR culture with antibodies at a concentration of 10 μg/mL. […] Further, many of the tested PD-L1 antibodies elicited a statistically significant increase in IFN-γ production, including a roughly 10-fold increase by CTI-33 and CTI-55 over control levels.

For data set [5], the target named is T2, binding of PD-L1 and B7.1 (Homo sapiens, UniProt Q9NZQ7).
T2 construct: purchased
T2 sequence (Q9NZQ7 19-238 limits assumed): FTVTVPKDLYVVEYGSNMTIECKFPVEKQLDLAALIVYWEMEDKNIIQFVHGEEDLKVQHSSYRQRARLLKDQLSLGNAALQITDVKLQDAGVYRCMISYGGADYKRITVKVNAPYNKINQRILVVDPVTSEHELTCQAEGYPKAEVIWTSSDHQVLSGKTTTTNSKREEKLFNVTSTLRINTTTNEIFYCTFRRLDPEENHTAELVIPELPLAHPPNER
Nature of the data set: PD-L1/B7.1 inhibitor screening assay. To be noted: PD-L1 coated plate, B7.1-biotin. From the text:
A commercially available assay kit was used to screen and profile the interaction of the disclosed antibodies and the PD-L1/B7.1 interaction. The kit came in a 96-well format with biotin-labeled B7-1 (CD80), purified PD-L1, streptavidin-labeled HRP, and assay buffer for 100 binding reactions. The kit was used to detect biotin-labeled B7.1 by streptavidin-HRP.
First, PD-L1 was coated on a 96-well plate. Next, either one of the disclosed antibodies, a positive control, a substrate control, or a blank was added to each well and incubated prior to the addition of B7.1-biotin. Finally, the plate was treated with streptavidin-HRP followed by addition of an HRP substrate to produce chemiluminescence, which can then be measured by a chemiluminescence reader.

For another data set, the system named is PD-1:PD-L1 ligation. Put plainly: immunoblockade reporter (NFAT) assay, PD1/PD-L1 Blockade Assay Kit. The data set is classed as cell-based. To be noted: Jurkat PD-1 Effector cells and aAPC PD-L1 cells.
A further data set addresses cynoPDL1. Nature of the data set: Octet antibody binding kinetics. Further details: species or system cyno. Here is the method: as §1, §2, §3
The target of data set [6] is T1, PD-L1. Put plainly: ForteBio affinity measurements. The conditions noted are these: 100 nM antigen, 1:1 binding model. As to the method: ForteBio affinity measurements were performed generally as previously described (see, e.g., Estep, P. et al., mAbs 5:270-278 (2013)). Briefly, ForteBio affinity measurements were performed by loading IgGs on-line onto AHQ sensors. Sensors were equilibrated off-line in assay buffer for 30 minutes and then monitored on-line for 60 seconds for baseline establishment. Sensors with loaded IgGs were exposed to 100 nM antigen for 5 minutes; afterwards, they were transferred to assay buffer for 5 minutes for off-rate measurement. Kinetics were analyzed using the 1:1 binding model.

Data set [7] addresses T1, PD-L1. The conditions noted are these: cited from earlier work.
Data set [8] concerns the target T3, PD-L1 antigen of the ForteBio affinity measurement (Example 7) (UniProt Q9NZQ7 19-238, limits assumed). Put plainly: ForteBio BLI, IgG on AHQ sensors, 100 nM antigen, 1:1 model, monovalent.
For data set [9], the target named is T3, PD-L1 antigen of the ForteBio affinity …. Nature of the data set: ForteBio BLI, IgG on AHQ sensors, 100 nM antigen, 1:1 model.
Data set [10] concerns the target T4, PD-L1 expressed on transfected CHO cells (UniProt Q9NZQ7 19-290).
T4 construct: whole, on cells; also called PD-L1+cells; PD-L-1+cells
Put plainly: competitive FACS on PD-L1+ CHO cells; competitor biotin-labeled PD-1 at 1 µg/ml.

Counter-ions that a name gives are not always drawn. Where only a bound is given, the exact number is not on record here.

T1 sequence (Q9NZQ7 19-290): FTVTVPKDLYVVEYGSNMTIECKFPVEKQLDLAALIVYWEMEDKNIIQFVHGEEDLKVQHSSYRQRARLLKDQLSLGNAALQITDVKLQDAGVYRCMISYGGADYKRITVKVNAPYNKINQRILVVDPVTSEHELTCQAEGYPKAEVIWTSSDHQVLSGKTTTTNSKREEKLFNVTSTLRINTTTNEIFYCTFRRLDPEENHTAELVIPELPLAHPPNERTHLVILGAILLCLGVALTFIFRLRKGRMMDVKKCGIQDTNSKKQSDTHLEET
T3 sequence (Q9NZQ7 19-238 limits assumed): as the sequence (Q9NZQ7 19-238 limits assumed) above
T4 sequence (Q9NZQ7 19-290): as the sequence (Q9NZQ7 19-290) above
Sequence of PI3K isoforms (Human) α (P42336 whole entry, canonical isoform): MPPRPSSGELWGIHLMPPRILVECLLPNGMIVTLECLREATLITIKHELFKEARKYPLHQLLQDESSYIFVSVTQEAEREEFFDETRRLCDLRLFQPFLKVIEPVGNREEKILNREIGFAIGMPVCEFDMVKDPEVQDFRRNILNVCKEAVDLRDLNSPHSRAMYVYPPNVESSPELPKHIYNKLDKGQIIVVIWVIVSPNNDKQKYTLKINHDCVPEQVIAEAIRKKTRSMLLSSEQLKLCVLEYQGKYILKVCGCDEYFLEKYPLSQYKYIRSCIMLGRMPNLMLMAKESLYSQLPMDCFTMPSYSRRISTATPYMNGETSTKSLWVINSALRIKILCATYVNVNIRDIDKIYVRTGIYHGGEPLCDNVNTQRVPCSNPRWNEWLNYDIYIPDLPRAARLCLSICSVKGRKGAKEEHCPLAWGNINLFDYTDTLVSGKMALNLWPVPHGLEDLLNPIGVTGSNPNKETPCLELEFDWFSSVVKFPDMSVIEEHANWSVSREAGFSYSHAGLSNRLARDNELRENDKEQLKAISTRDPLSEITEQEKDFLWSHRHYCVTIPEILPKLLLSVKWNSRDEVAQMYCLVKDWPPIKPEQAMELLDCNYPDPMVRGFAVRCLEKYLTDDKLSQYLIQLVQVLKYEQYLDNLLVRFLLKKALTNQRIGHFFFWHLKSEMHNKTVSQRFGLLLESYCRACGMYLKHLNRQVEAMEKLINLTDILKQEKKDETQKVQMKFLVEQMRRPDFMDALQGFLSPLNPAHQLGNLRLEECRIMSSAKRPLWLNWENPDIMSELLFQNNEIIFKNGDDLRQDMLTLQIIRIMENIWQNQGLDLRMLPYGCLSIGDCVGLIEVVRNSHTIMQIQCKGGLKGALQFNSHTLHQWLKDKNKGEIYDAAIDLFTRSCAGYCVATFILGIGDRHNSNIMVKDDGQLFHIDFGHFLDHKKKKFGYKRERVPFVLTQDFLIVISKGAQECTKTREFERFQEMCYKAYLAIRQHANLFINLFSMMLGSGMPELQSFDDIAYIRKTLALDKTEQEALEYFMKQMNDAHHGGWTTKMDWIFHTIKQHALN
Sequence of PI3K isoforms (Human) α (P27986 whole entry partner, canonical isoform): as the sequence (P27986 whole entry partner, canonical isoform) above
Procedure for PD-1:PD-L1 ligation: Immunoblockade assays were performed using a PD1/PD-L1 Blockade Assay Kit (Promega, CS187111) in 96 well plates. Three major events occur in the assay. Event 1: TCR-mediated NFAT activation occurs when engineered Jurkat PD-1 Effector cells and aAPC (artificial antigen presenting cell) PD-L1 cells are engaged through TCR/TCR activator interaction. Event 2: Inhibition of NFAT signal by PD-1:PD-L1 ligation when no blocking antibodies are present. Event 3: Recovery of NFAT signal by addition of anti-PD-1 or anti-PD-L1 blocking antibody.
The day before assay, 25 mL of cell recovery medium (10% FBS/F-12) was made in 50 mL conical tubes for Thaw-and-Use PD-L1 cells by adding 2.5 mL FBS to 22.5 mL F-12. One vial of Thaw-and-Use PD-L1 cells (CS187103) was removed from freezer storage and transferred to the bench on dry ice. The vial was thawed in a 37° C. water bath until cells were just thawed (about 3-4 minutes). The cell suspension was gently mixed in the vial by pipetting up and down. All the cells (0.5 mL) were transferred to a tube labeled “PD-L1 cells” containing 14.5 mL cell recovery medium, followed by gentle inversions. […]
Thaw-and-Use PD-1 Effector cells (CS187105) were transferred into the assay plates, and the plates were incubated for six hours at 37° C. in CO2 incubator. […] Luminescence was measured in a POLARstar Omega plate reader with 0.5 second integration.

Broadly, the Cmax is the highest concentration seen after dosing. The IC50 is the midpoint of a concentration-inhibition curve. Low readings indicate higher potency, high ones lower potency. Take `CC(C)Oc1ccc(-c2nn([C@@H](C)c3oc4ccc(F)cc4c(=O)c3-c3cccc(F)c3)c3ncnc(N)c23)cc1F` [TGR-1202, (S)-2-(1-(4-amino-3-(3-fluoro-4-isopropoxyphenyl)-1H-pyrazolo[3,4-d]pyrim-idin-1-yl)ethyl-6-fluoro-3-(3-fluorophenyl)-4H-chromen-4-one p-toluenesulfonic acid (PTSA) salt]: the AUC(0-inf) worked out at 8390 ng·h/mL in data set [1] (Fasting), 14000 ng·h/mL in data set [1] (Fed), 12400 ng·h/mL in data set [2] (Micronized Formulation) and 7720 ng·h/mL in data set [2] (Non-Micronized Formulation). Moreover, the AUC(0-t) in data set [1] (Fasting) was found to be 6030 ng·h/mL; in [1] (Fed), 9690 ng·h/mL; in data set [2] (Micronized Formulation), 9440 ng·h/mL; in [2] (Non-Micronized Formulation), 5910 ng·h/mL. Further, the maximum concentration (Cmax) came to 177 ng/mL in data set [1] (Fasting), 483 ng/mL in [1] (Fed), 372 ng/mL in data set [2] (Micronized Formulation) and 166 ng/mL in [2] (Non-Micronized Formulation). Besides, the IC50 on PI3K isoforms (Human) α is > 10000 nM; against PI3K isoforms (Human) γ, 1060 nM; against PI3K isoforms (Human) β, 1120 nM. Besides, the hepatic toxicity entry in data set [3] is recorded as “no reported hepatic toxicity”. Besides, the tolerability result in data set [3] is on record as “well-tolerated”.
“pembrolizumab: humanized monoclonal IgG4 kappa antibody directed against PD-1”: in the data set on patients with CLL, the ORR is 0% and the “median PFS” value is on record as 2.4 months.

B1: CTI-48: fully human anti-PD-L1 IgG1; HCDR1-3 SEQ ID NO: 11, 19, 27; LCDR1-3 SEQ ID NO: 31, 33, 35 (antibody, chains of the INN, looked up, V domains shown)
VH: EVQLVQSGAEVKKPGSSVKVSCKASGGTFSRSAISWVRQAPGQGLEWMGVIIPAFGEANYAQKFQGRVTITADESTSTAYMELSSLRSEDTAVYYCARGRQMFGAGIDFWGQGTLVTVSS
VL: NFMLTQPHSVSESPGKTVTISCTRSSGSIDSNYVQWYQQRPGSAPTTVIYEDNQRPSGVPDRFSGSIDSSSNSASLTISGLKTEDEADYYCQSYDSNNRHVIFGGGTKLTVL
By Kd is commonly meant a measure of binding affinity in units of concentration. Usually koff stands for a measure of how fast the partners let go of each other. Turning to B1, in the data set with PD-L1 [4], binding was characterised by a dissociation constant (Kd) of 0.847 nM, the kdis turned out to be 0.00061 L/s and the kon amounted to 7.20E+05 l/Ms. The ADCC activity entry in the data set on SUDHL-1 lymphoma cells is on record as “exhibits ADCC activity”. Further, in the data set with IFN-γ production, the “fold change in production of IFN-γ” value was “comparable response to a clinical control mAb”. In addition, the “IC50 for binding inhibition” value in [5] came to 0.1816 µg/mL. In the data set on PD-1:PD-L1 ligation, the “EC50, recovery of NFAT signal” value was 0.0775 µg/mL. At cynoPDL1, this molecule registered a Kd of 0.555 nM, a kdis of 0.000635 L/s and a kon of 1.14E+06 l/Ms. Further, in the data set with PD-L1 [6], the koff came out at 0.000633 s⁻¹ and the kon amounted to 768000 M⁻¹ s⁻¹. In addition, the dissociation constant Kd in the data set with PD-L1 [6] (read-out: IgG KD (M) Monovalent) stood at 8.24e-10 M. The “binding affinity for PD-L1” value with PD-L1 [7] was “sub-nanomolar”.

B2: CTI-07 (antibody, V domains shown)
VH: EVQLVQSGGEVKKPGASVKVSCKASGYTLSSHGITWVRQAPGQGLEWMGWISAHSGHASNAQKVEDRVTMTTDTSTNTAYMELRSLTADDTAVYYCARVHAALYYGMDVWGQGTLVTVSS
VL: LSVLTQPPSVSVAPGQTARITCGGNNIGSKGVHWYQQKPGQAPVLVVYDDSDRPSGIPERFSGSNSGNTATLTISRVEAGDEADYYCQVWDSSSDHWVFGGGTKLTVL
B2 came in with a dissociation constant (Kd) in data set [8] of 79.7 nM. In [9], this molecule displayed an off-rate (koff) of 0.0392 s⁻¹ and a kon of 492000 M⁻¹ s⁻¹.

B3: CTI-57 (antibody, V domains shown)
VH: EVQLVQSGGEVKKPGASVKVSCKASGYTLSSHGITWVRQAPGQGLEWMGWISAHSGHASNAQKVEDRVTMTTDTSTNTAYMELRSLTADDTAVYYCARVWRALYHGMDVWGQGTLVTVSS
VL: LSVLTQPPSVSVAPGQTARITCGGNNIGSKGVHWYQQKPGQAPVLVVYDDSDRPSGIPERFSGSNSGNTATLTISRVEAGDEADYYCQVWDSSSDHWVFGGGTKLTVL
For B3, in data set [8], the Kd worked out at 0.86 nM. In data set [9], this molecule displayed a koff of 0.00045 s⁻¹ and a kon of 520000 M⁻¹ s⁻¹.

B4: CTI-58 (antibody, V domains shown)
VH: EVQLVQSGGEVKKPGASVKVSCKASGYTLSSHGITWVRQAPGQGLEWMGWISAHSGHASNAQKVEDRVTMTTDTSTNTAYMELRSLTADDTAVYYCARVHAALYHGMDVWGQGTLVTVSS
VL: LSVLTQPPSVSVAPGQTARITCGGNNIGSKGVHWYQQKPGQAPVLVVYDDSDRPSGIPERFSGSNSGNTATLTISRVEAGDEADYYCQVWDSSSDHWVFGGGTKLTVL
In turn, B4 had an IC50 in data set [10] of 3.46 µg/mL. The same molecule displayed a Kd in [8] of 24.1 nM. In data set [9], this molecule had an off-rate (koff) of 0.0111 s⁻¹ and a kon of 461000 M⁻¹ s⁻¹.

Values taken from patent US20190247399A1, “COMBINATION OF AN ANTI-CD20 ANTIBODY, PI3 KINASE-DELTA INHIBITOR, AND ANTI-PD-1 OR ANTI-PD-L1 ANTIBODY FOR TREATING HEMATOLOGICAL CANCERS” (TG Therapeutics, Inc., priority 2016, published 2019).
